Laboratory results: patent US20240165282A1, “CONFORMATIONAL CONSTRAINED SOMATOSTATIN RECEPTOR 3 PEPTIDE LIGANDS AND THEIR CONJUGATES AND USES THEREOF” (STARGET PHARMA LTD., priority 2021, published 2024)
*1 amine or outer side, *2 acyl side, *3 side chain or, on linkers, in order; H or OH if unused. Bridges are numbered along the chain shown (N, C = ends). Where no end group is shown, it is not given here. [ ]: non-standard residue; d: D form. N(2-mercaptoethyl)Gly = O=C(CN(CCS[*:3])[*:1])[*:2]

Parameters: species or system mice
Conditions: mouse, in vivo, iv
Experimental: As described in Example 1 above, the successful substitution of the arginine with lysine which preserved the high affinity selectivity of SEQ ID NO: 2 to SSTR-3 (as depicted in table 3) can improve this analog as a better candidate for radioligand therapy and diagnostic. SEQ ID NO: 4 and SEQ ID NO: 10 are the gallium labeled analogs of SEQ ID NO: 1 and SEQ ID NO: 2 respectively. Following their radiolabeling the radioligand were injected to anesthetized naïve mice by intravenous administration. The mice were subjected to PET-CT imaging aimed to assess the disposition profiles of the radioligands.

## radiolabeled SEQ ID NO: 2 ([dF]KCF[dW]KTF[N(2-mercaptoethyl)Gly]-NH2; disulfide 3-9; not fully specified (N-terminus); also: radiolabeled)
  clearance from the kidneys: significantly higher clearance of the peptide from the kidneys in comparison to radiolabeled SEQ ID NO: 1
